Values of other authors, collected in article PMC4484741.
Read-outs that look alike come from different tables or passages of the source.

Assays:
GLP-1 receptor [1] = molecular target: GLP-1 receptor (UniProt P43220)
GLP-1 receptor [2] = molecular target: GLP-1 receptor (UniProt P43220); remark: listed apart in the source

Chain of GLP-1 receptor (P43220 24-463): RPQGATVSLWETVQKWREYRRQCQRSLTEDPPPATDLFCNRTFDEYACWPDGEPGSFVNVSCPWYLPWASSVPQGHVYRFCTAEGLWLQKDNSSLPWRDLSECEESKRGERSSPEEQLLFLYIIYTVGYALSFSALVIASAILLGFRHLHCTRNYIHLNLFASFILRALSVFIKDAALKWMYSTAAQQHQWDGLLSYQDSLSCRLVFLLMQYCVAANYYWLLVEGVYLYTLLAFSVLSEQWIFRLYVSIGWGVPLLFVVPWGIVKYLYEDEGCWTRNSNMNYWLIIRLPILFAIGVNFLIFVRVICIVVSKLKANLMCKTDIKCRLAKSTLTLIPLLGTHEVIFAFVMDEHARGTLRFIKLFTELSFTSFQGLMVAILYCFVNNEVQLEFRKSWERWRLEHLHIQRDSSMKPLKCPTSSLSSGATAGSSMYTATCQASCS
Chain of Exendin (9-39) 9-39 (P26349 56-86): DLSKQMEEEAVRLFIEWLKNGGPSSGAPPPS
Chain of Exendin-4 (P26349 48-86): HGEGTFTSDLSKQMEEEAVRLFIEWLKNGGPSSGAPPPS

Substance | Kd (GLP-1 receptor [1]) [nM] | Kd (GLP-1 receptor [2]) [nM]
Exendin (9-39) 9-39 (from UniProt P26349) | 3 | –
Exendin-4 (from UniProt P26349) | – | 0.14
